Data as given in PMC8605242, “Multiple variants of the human presequence translocase motor subunit Magmas govern the mitochondrial import” (The Journal of Biological Chemistry, 2021).

T1: GST-Magmas (human, UniProt Q9Y3D7 1-125)
T1 construct: Magmas, human, full length; vector pGEX-KG; also called GST tagged Magmas; source: E. coli (C41), purified
T1 sequence (looked up): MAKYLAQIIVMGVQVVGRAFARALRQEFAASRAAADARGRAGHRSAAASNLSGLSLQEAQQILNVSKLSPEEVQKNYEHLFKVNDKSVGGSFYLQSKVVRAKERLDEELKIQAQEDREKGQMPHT

T2: GST-Magmas-1 (human, UniProt I3L3T0 1-145)
T2 construct: Magmas-1, human variant of Magmas with a unique N-terminal extension, full length; UniProt entry I3L3T0; vector pGEX-KG; also called GST tagged Magmas-1; source: E. coli (C41), purified
T2 sequence (looked up): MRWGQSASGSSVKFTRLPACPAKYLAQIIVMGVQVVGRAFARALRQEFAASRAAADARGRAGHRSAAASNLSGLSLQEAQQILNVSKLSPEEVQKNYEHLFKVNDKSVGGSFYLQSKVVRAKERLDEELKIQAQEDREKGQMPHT

B1: DnaJC19J+T (domain or fragment)
chain: not shown
notes: DnaJC19, human J-protein, N-terminal truncation with the J-domain and predicted MTS (J + T), amino acids 34-112; also called hexahistidine tagged DnaJC19J+T
B2: DnaJC15J+T (domain or fragment)
chain: not shown
notes: DnaJC15, human J-protein, N-terminal truncation with the J-domain and predicted MTS (J + T), amino acids 69-146; also called hexahistidine tagged DnaJC15J+T

Tests used:
[1] = target: T1, GST-Magmas; experiment: pull-down; 1 μM GST alone or GST-Magmas variants held on beads, increasing concentrations of DnaJC19J+T or DnaJC15J+T, 45 min, 24 °C; 50 mM Tris-HCl pH 7.5, 100 mM KCl, 0.2% Triton-X 100, 10% glycerol, 1 mM PMSF; blocked with 0.1% BSA; SDS-PAGE, Coomassie, densitometry; settings: both partners purified
[2] = target: T2, GST-Magmas-1; experiment: as above; settings: both partners purified
[3] = target: B2; experiment: cell-based or functional assay
[4] = target: B1; experiment: cell-based or functional assay

Sequence of DnaJC15J+T (Q9Y5T4 69-146): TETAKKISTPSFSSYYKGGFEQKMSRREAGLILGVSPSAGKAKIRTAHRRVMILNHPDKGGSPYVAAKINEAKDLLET
Sequence of DnaJC19J+T (Q96DA6 34-112): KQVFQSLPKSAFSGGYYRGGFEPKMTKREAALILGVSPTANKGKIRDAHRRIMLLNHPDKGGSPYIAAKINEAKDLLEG

binding result [1]	binding result [2]	Binder	inhibition of the DnaJC15J+T-stimulated ATP hydrolysis of mortalin, single turnover assay, Mortalin-ATP : J-protein : Magmas variant 1:2:4 [3]	inhibition of the DnaJC19J+T-stimulated ATP hydrolysis of mortalin, single turnover assay, Mortalin-ATP : J-protein : Magmas variant 1:2:4 [4]
binds	binds	B1	–	–
binds	–	B2	–	–
–	–	hexahistidine tagged Magmas-2 (natural protein, human, UniProt I3L1U7 1-129, looked up) MAKYLAQIIVMGVQVVGRAFARALRQEFAASRAAADARGRAGHRSAAASNLSGLSLQEAQQILNVSKLSPEEVQKNYEHLFKVNDKSVGGSFYLQSKRSGLSMLPKLISNSWPQAILLPWPPKTLGLHA	> 90%	> 90%
